Measurements: US7985736B2, “High throughput screen utilizing newly discovered intramolecular neuronal calcium channel interactions to discover new analgesics” (The John Hopkins University, priority 2004, dated 2011)

Legend:
[1] = target: T1, I-II loop of α1B (I-IIB) (Homo sapiens, UniProt Q00975); experiment: Yeast two-hybrid assay, NT peptides versus I-IIB; assay type: binding; conditions: NT segment in pGBKT7, I-IIB in pGADT7
T1 construct: I-IIB(357-482)-pGADT7 & lam-pGBKT7; expressed in transfected cells; host or cells: AH109 yeast
T1 sequence (Q00975 357-482): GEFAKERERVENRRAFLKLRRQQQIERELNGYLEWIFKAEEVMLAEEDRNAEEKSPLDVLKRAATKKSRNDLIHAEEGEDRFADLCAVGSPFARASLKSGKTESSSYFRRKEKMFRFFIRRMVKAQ
Text: (§1) For yeast two-hybrid assays, a PCR fragment encoding one partner was fused, in-frame, with the GAL4 DNA binding domain (BD) in pGBKT7 (Clontech, Palo Alto, Calif.). The other element was fused, in-frame, with the GAL4 activation domain (AD) in pGADT7. For specific residues, see Supplemental Data (section 2). For electrophysiology, NT peptides lacking fluorophore tag were PCR amplified and cloned in pcDNA3. NTB peptide residues, 1-95; NTC residues, […]. Throughout, all segments subject to PCR or QuikChange were verified in their entirety by sequencing.
(§2) The Matchmaker GAL4 Two-Hybrid System 3 was used (Clontech, Palo Alto, Calif.). AH109 yeast were transformed with pGBKT7/pGADT7-based constructs (Yeastmaker Yeast Transformation System 2 kit, Clontech). After 5-8 days, growth on -leucine/-trytophan plates confirmed transformation of both plasmids. If partners interact, GAL4 BD/AD would complex, activating reporter genes (HIS3, ADE2, lacZ, and MEL1), for which assays are detailed in the Supplemental Data (section 2.1).
(§3) As a ‘medium’ stringency assay, expression of the lacZ gene was tested for encoding β-galactosidase, performing a filter lift with application of blue chromogenic substrate (Clontech-Laboratories, 1999). After the filter lift, original plates were re-grown for 2-3 days at 30° C. Filter paper was then used to replicate colonies onto a high stringency plate (-adenine/-histidine/-leucine/-trytophan). These plates were then incubated at 30° C. for 5-8 days. Survival on high stringency plates indicates production of both adenine and histidine, from transcription of the ADE2 and HIS3 genes, respectively. The percentage of colonies that turned blue in the filter lift assay, along with the percentage of colonies that survived on high stringency plates, was recorded for each pairing. Experiments were repeated at least three times. False positives were controlled for by testing each segment in pGBKT7 against empty pGADT7, and each segment in pGADT7 against lamin C in pGBKT7 (lamin C interacts with few proteins). Average sum of these backgrounds was subtracted from B to produce the net interaction parameter ΔB (FIG. 2).

[2] = target: T2, Gβ1 (Bos taurus, UniProt P62871); experiment: Yeast two-hybrid assay, channel fragments versus Gβ1; assay type: binding; conditions: Gβ1 in pGADT7, channel fragment in pGBKT7
T2 construct: expressed in transfected cells; host or cells: AH109 yeast
T2 sequence (P62871 whole entry, the tested form may be a part): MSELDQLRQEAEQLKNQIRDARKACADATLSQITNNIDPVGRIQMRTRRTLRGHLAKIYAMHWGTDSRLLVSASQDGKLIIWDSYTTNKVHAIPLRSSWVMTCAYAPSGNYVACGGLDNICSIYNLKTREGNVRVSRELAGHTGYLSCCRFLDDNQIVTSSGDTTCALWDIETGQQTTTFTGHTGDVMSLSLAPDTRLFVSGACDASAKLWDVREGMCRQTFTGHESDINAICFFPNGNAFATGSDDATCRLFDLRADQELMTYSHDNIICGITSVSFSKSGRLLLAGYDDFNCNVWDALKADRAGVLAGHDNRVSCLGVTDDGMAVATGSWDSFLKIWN
Text: as §1, §2
as §3, with “Average sum of these backgrounds was subtracted from B to produce the net interaction parameter ΔB (FIG. 2).” left out

[3] = target: T3, I-IIC (Oryctolagus cuniculus, UniProt P15381); experiment: Live-cell FRET two-hybrid assay versus I-IIC in HEK293 cells; assay type: binding, rabbit; conditions: compared with NTB/I-IIB pair
T3 construct: I-IIC residues, 436-554; expressed in transfected cells; host or cells: HEK293
T3 sequence (P15381 436-554): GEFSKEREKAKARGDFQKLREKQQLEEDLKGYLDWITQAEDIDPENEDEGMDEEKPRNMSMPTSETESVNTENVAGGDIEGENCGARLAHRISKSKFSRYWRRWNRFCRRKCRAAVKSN
Text: To confirm preferential interaction of NTB with I-IIB a live-cell FRET two-hybrid assay was used (Erickson et al., 2003), in which NTB, NTC, I-IIB, and I-IIC were fused to either CFP or YFP, and the resulting fusion constructs expressed pair-wise in mammalian HEK293 cells. Given a Forster distance of ˜50 Å for the CFP/YFP pair (Patterson et al., 2000), the presence of FRET in individual cells would give a strong indication of interpeptide binding in the mammalian intracellular milieu. This indication is generally characterized by a low false-positive rate (Erickson et al., 2003), so that FRET assays provide a useful complement to yeast two-hybrid assays (Allen et al., 1995). […] SCFP (the signal derived from an image obtained with the CFP filter cube) is selective for CFP fluorescence and thereby gives an optical measure of NTB-CFP expression. Analogously, the SYFP signal, derived from preferential excitation and detection of YFP, estimates I-IIB-YFP levels. Finally, the SFRET signal reflects I-IIB-YFP fluorescence stimulated by FRET transfer from NTB-CFP, as well as secondary cross-talk signals. […]
Experiments were performed mostly as previously described (Erickson et al., 2001; Erickson et al., 2003). […] For donor-dequenching analysis, EEFF is calculated as EEFF=^1−CFPpre/CFPpost, where CFPpre and CFPpost are the CFP emissions before/after 3 min YFP photobleaching. […]

Q: Which “Interaction with I-IIB (yeast two-hybrid, ΔB)” value [1] does the source give for “NTC: NH3 terminus of L-type channel α1C subunit, free peptide [reference compound]” here?
A: The value was “failed to reveal an association”.

Q: And the “Interaction with Gβ1 (yeast two-hybrid)” value [2]?
A: Its value is “interact”.

Q: And the “Kd,EFF for I-IIC (FRET), in words” value [3]?
A: Its value is “larger by an order of magnitude or more”.

B1: NTB: NH3 terminus of N-type channel α1B subunit, residues 1-95, expressed as free peptide (SEQ ID NO.: 1) (protein, listed as Homo sapiens)
chain: MVRFGDELGGRYGGPGGGERARGGGAGGAGGPGPGGLQPGQRVLYKQSIAQRARTMALYNPIPVKQNCFTVNRSLFVFSEDNVVRKYAKRITEWP
Q: B1 was tested. Which “Interaction with I-IIB (yeast two-hybrid, ΔB)” value [1] did it give?
A: Its value is “positive”.

Q: And the “Interaction with Gβ1 (yeast two-hybrid)” value [2]?
A: The value was “interact”.

Q: What about the “Kd,EFF for I-IIC (FRET), in words” value [3] of the same molecule?
A: Its value is “larger by an order of magnitude or more”.
